Key:
[1] = biological target: T1, recombinantly-expressed P. aeruginosa flagellin type A (Pseudomonas aeruginosa, UniProt P21184 2-394); assay: ELISA on plates coated with purified flagellin type A
T1 construct: also called PA flagellin type A; PA flagellin A
T1 sequence: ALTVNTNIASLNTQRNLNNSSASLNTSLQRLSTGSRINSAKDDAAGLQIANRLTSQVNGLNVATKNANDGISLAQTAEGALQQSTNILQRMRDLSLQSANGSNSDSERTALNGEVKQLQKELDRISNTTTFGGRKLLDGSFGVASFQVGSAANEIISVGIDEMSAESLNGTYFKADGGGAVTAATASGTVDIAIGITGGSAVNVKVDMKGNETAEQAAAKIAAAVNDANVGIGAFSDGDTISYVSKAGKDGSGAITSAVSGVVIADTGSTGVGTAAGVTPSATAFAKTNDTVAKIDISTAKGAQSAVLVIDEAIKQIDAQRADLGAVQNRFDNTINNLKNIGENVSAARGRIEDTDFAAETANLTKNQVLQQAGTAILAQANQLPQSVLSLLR

[2] = biological target: T1, recombinantly-expressed P. aeruginosa …; assay: ELISA, plates coated with recombinant flagellin type A (250 ng/well), anti-human Fc-HRP
[3] = biological target: T1, recombinantly-expressed P. aeruginosa …; assay: SPR (ProteOn XPR36), mAb amine-coupled to GLM chip, flagellin as analyte 5-80 nM, 1:1 model
[4] = biological target: T2, flagellin type B of P. aeruginosa laboratory strain PA01 (Pseudomonas aeruginosa, UniProt P72151 1-488); assay: immunoblot of P. aeruginosa lysates probed with LST-003, anti-human Fc peroxidase detection
T2 construct: whole, on cells; Tested on whole immobilized or formaldehyde-fixed bacteria (ELISA), in blotted lysate (western blot) and on live bacteria (motility)
T2 sequence: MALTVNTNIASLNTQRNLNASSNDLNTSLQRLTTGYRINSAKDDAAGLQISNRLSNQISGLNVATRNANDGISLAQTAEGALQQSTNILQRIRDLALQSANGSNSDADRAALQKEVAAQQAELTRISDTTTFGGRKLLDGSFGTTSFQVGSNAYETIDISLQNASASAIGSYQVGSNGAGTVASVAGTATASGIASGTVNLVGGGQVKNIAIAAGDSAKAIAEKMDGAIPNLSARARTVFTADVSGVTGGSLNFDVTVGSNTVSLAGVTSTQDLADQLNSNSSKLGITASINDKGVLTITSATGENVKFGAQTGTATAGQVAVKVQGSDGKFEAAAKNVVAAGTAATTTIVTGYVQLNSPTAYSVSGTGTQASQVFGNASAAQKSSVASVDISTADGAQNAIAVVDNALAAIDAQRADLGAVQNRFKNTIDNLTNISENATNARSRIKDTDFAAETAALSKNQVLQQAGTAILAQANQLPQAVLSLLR

[5] = biological target: T2, flagellin type B of P. aeruginosa …; assay: immunoblot of P. aeruginosa lysates probed with LST-001, anti-mouse Fc peroxidase detection
[6] = biological target: T3, recombinantly-expressed P. aeruginosa flagellin type B (Pseudomonas aeruginosa, UniProt P72151 1-488); assay: ELISA on plates coated with purified flagellin type B
T3 construct: also called PA flagellin type B; PA flagellin B
T3 sequence: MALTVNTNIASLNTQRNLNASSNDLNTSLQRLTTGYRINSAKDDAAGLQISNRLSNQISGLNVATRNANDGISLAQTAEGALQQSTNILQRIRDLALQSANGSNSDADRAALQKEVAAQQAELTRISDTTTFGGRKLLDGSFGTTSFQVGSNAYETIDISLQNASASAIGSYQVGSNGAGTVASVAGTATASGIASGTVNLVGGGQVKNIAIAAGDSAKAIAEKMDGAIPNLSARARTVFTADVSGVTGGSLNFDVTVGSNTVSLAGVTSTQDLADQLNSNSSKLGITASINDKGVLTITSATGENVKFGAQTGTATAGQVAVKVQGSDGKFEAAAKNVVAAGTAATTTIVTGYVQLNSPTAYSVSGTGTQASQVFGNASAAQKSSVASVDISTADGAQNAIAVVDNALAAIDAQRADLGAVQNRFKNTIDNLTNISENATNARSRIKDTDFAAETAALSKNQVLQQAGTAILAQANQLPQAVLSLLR

[7] = biological target: T3, recombinantly-expressed P. aeruginosa …; assay: ELISA, plates coated with recombinant flagellin type B (250 ng/well), anti-human Fc-HRP
[8] = biological target: T3, recombinantly-expressed P. aeruginosa …; assay: SPR (ProteOn XPR36), mAb amine-coupled to GLM chip, flagellin as analyte 5-80 nM, 1:1 model
[9] = biological target: T4, flagellin type A of P. aeruginosa laboratory strain PAK (Pseudomonas aeruginosa, UniProt P21184 2-394); assay: ELISA on whole immobilized bacteria, single point
T4 construct: whole, on cells; Tested on whole immobilized or formaldehyde-fixed bacteria (ELISA) and in blotted bacterial lysate (western blot)
T4 sequence: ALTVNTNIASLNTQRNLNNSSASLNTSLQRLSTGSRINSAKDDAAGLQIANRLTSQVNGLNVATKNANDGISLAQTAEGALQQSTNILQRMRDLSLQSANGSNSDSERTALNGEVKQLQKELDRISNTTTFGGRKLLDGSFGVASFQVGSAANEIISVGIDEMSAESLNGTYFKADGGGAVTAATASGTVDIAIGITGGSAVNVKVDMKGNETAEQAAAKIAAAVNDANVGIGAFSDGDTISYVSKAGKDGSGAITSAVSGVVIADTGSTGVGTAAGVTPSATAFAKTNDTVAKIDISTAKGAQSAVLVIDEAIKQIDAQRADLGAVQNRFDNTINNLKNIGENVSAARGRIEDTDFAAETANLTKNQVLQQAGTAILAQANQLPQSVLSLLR

[10] = biological target: T3, recombinantly-expressed P. aeruginosa …; assay: ELISA, plates coated with recombinant flagellin type B at 5 µg/ml, anti-human Fc-HRP

B1: chimeric mAb LST-003 (antibody, V domains shown)
VH: DVQLQESGPGLVKPSQSLSLPCSVTGYSITSGYYWNWIRQFPGNKLEWMGYIRYDGNNNYNPSLKNRISITHDTSKNQFFLKLNYVTTEDTATYYCARGLQFYFDSWGQGTTLTVSS
VL: DIVMSQSPSSLAVSGGEKVTMSCKSSQSLLNGSYQKHTLAWYQQKPGQSPKLLIYWASTRESGVPDRFTGSGSGTDFTLTISSVKAEDLAVYYCQQYYSYPWTFGGGTKLEIKR
notes: also called chimeric LST-003; chimeric anti-flagella type A antibody
With B1 the “EC50 (read off the curve)” value [1] was roughly 700 pM, the EC50 [2] was roughly 0.065 µg/mL and the Kd [3] was 3000 pM. B1: no binding (tested: 10 µg/ml) [4].

B2: mouse monoclonal antibody LST-001 (antibody, V domains shown)
VH: DVQLQESGPGLVKPSQSLSLPCSVTGYSITSGYYWNWIRQFPGNKLEWMGYIRYDGNNNYNPSLKNRISITHDTSKNQFFLKLNYVTTEDTATYYCARGLQFYFDSWGQGTTLTVSS
VL: DIVMSQSPSSLAVSGGEKVTMSCKSSQSLLNGSYQKHTLAWYQQKPGQSPKLLIYWASTRESGVPDRFTGSGSGTDFTLTISSVKAEDLAVYYCQQYYSYPWTFGGGTKLEIKR
notes: Mouse monoclonal antibody; also called mouse LST-001; FA6 IIG5 (ATCC HB9130)
For B2, the Kd [3] was 600 pM and the binding result [5] was “no binding (tested: 10 µg/ml)”.

B3: dual-specific chimeric mAb LST-010 (bispecific antibody)
heavy: not shown
light: DIVMSQSPSSLAVSGGEKVTMSCKSSQSLLNGSYQKHTLAWYQQKPGQSPKLLIYWASTRESGVPDRFTGSGSGTDFTLTISSVKAEDLAVYYCQQYYSYPWTFGGGTKLEIKR
notes: also called dual-specific LST-010 mAb; not shown: human light constant domain (CL)
For B3, the “EC50 (read off the curve)” value [1] was roughly 900 pM.

B4: chimeric mAb LST-004 (antibody, V domains shown)
VH: EVMLVESGGGLVKPGGSLKLSCAASGFTFSTFTMSWVRQTPEKRLECVATINGGGGNTYYPDSVKGRFTISRDNAKNNLYLQMSSLRSEDTAFYFCSRLYGIYAMDYWGQGTSVTVSS
VL: DIVMTQSHIFMSTSVGDRVSITCKASQDVGSAVAWYQQKPGQSPKVLIYWTSTRHTGVPDRFAGSGSGTEFTLTISNVQSEDLADYFCQQYSSYPLTFGAGTKLELKR
notes: also called chimeric LST-004
With B4 the “EC50 (read off the curve)” value [6] was roughly 1000 pM, the EC50 [7] was roughly 0.3 µg/mL and the Kd [8] was 1300 pM.

B5: mouse monoclonal antibody LST-002 (antibody, V domains shown)
VH: EVMLVESGGGLVKPGGSLKLSCAASGFTFSTFTMSWVRQTPEKRLECVATINGGGGNTYYPDSVKGRFTISRDNAKNNLYLQMSSLRSEDTAFYFCSRLYGIYAMDYWGQGTSVTVSS
VL: DIVMTQSHIFMSTSVGDRVSITCKASQDVGSAVAWYQQKPGQSPKVLIYWTSTRHTGVPDRFAGSGSGTEFTLTISNVQSEDLADYFCQQYSSYPLTFGAGTKLELKR
notes: Mouse monoclonal antibody; also called mouse LST-002; PaF4 IVE5 (ATCC HB9129)
B5 was tested, and the binding result [9] was “no binding (tested: 1:2 dilution, concentration not given)” and the Kd [8] was 820 pM.

B6: human monoclonal IgM antibody LST-007 (antibody, V domains shown)
VH: QVRLVQSGTEVKKPGASVRVSCKASGYTFSNYYMYWVRQAPGQGLEWMAMINPSGGSTRYAQKFQGRVTMTRDTSTSTVYMELSSLRSEDTAVYYCARADSGSYFGYWGQGTLVTVSS
VL: DIQLTQSPSFLSASVGDRVPITCRASQGISTHLAWYQQKPGKAPKLLIYAASTLQSGVPSRFSGSGSGTEFTLTISSLQPEDSATYYCQQLKSYPLTFGGGTKVEIKR
notes: Human IgM from an EBV-transformed lymphoblastoid cell line, tested as culture supernatant; also called 20H11 (ATCC CRL9300); human monoclonal IgM anti-flagella type B antibody
B6: no binding [9].

B7: fully human recombinant mAb LST-008 (antibody, V domains shown)
VH: QVRLVQSGTEVKKPGASVRVSCKASGYTFSNYYMYWVRQAPGQGLEWMAMINPSGGSTRYAQKFQGRVTMTRDTSTSTVYMELSSLRSEDTAVYYCARADSGSYFGYWGQGTLVTVSS
VL: DIQLTQSPSFLSASVGDRVPITCRASQGISTHLAWYQQKPGKAPKLLIYAASTLQSGVPSRFSGSGSGTEFTLTISSLQPEDSATYYCQQLKSYPLTFGGGTKVEIKR
notes: Human IgG1 made in CHO-S cells; also called recombinant human LST-008
In the case of B7, the EC50 [10] is reported as roughly 0.01 µg/mL and the Kd [8] is reported as 940 pM.

Source: US20130096282A1 (LOSTAM BIOPHARMACEUTICALS, published 2013)
